Measured values as given in patent EP2698431B1 (Chugai Seiyaku Kabushiki Kaisha, dated 2020).
Like-named read-outs stand apart in the source and are kept apart here.

T1: mouse FcγRIIb (mouse, UniProt P08101 40-217, limits assumed)
T1 construct: bought; also called mFcgRIIb; mFcgRII
T1 sequence (looked up): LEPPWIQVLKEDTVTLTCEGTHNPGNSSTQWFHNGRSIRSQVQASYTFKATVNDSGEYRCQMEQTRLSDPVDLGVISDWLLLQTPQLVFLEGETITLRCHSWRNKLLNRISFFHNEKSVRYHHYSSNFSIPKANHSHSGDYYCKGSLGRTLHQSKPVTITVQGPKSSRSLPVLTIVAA

T2: mouse FcγRIII (mouse, UniProt P08508 31-215)
T2 construct: bought; also called mFcgRIII
T2 sequence (looked up): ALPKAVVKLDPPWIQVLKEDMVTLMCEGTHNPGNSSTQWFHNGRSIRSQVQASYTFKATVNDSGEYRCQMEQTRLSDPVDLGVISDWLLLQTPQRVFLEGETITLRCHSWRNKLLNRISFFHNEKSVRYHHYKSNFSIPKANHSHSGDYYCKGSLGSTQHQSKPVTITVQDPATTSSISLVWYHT

T3: mouse FcγRIV (mouse, UniProt A0A0B4J1G0 21-203)
T3 construct: bought; also called mFcgRIV
T3 sequence: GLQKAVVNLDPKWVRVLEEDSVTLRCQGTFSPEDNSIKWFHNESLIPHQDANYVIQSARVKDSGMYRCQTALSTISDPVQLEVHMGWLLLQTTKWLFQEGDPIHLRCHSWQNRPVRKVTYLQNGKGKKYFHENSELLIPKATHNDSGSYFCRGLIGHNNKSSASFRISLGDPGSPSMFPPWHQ

T4: mouse FcγRI (mouse, UniProt P26151 25-297)
T4 construct: bought; also called mFcgRI
T4 sequence (looked up): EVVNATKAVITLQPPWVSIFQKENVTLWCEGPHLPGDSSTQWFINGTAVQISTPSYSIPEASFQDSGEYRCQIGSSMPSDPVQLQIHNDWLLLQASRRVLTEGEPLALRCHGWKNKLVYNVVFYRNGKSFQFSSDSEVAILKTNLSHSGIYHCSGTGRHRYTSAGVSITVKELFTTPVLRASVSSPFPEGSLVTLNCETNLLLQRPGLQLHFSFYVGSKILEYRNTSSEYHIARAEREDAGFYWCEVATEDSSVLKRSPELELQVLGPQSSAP


Tests used:
[1] = molecular target: T5, human FcRn (soluble, complexed with β2-microglobulin) (human, UniProt P61769 21-119); test: SPR pH7.0
T5 sequence (P61769 21-119, one chain of several): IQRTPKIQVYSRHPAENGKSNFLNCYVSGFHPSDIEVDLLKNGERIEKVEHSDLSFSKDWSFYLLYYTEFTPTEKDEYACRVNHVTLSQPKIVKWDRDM

mouse FcγRIIb [2] = molecular target: T1, mouse FcγRIIb; test: SPR pH7.4
mouse FcγRIII [3] = molecular target: T2, mouse FcγRIII; test: SPR pH7.4
mouse FcγRIV [4] = molecular target: T3, mouse FcγRIV; test: SPR pH7.4
mouse FcγRI [5] = molecular target: T4, mouse FcγRI; test: SPR pH7.4
[6] = molecular target: T5, human FcRn (soluble, complexed with …); test: SPR pH7.0; remark: listed apart in the source
[7] = molecular target: T5, human FcRn (soluble, complexed with …); test: SPR pH7.0; remark: listed apart in the source
[8] = molecular target: T5, human FcRn (soluble, complexed with …); test: SPR pH7.0; remark: listed apart in the source
mouse FcγRIIb [9] = molecular target: T1, mouse FcγRIIb; test: SPR pH7.4; design: unit not given here
mouse FcγRIII [10] = molecular target: T2, mouse FcγRIII; test: SPR pH7.4; design: unit not given here
mouse FcγRIV [11] = molecular target: T3, mouse FcγRIV; test: SPR pH7.4; design: unit not given here
mouse FcγRI [12] = molecular target: T4, mouse FcγRI; test: SPR pH7.4; design: unit not given here
[13] = molecular target: T5, human FcRn (soluble, complexed with …); test: SPR pH7.0; remark: listed apart in the source
[14] = molecular target: T5, human FcRn (soluble, complexed with …); test: SPR pH7.0; remark: listed apart in the source

Row | Binder | Kd [1] | binding amount (mouse FcγRIIb [2]) | binding amount (mouse FcγRIII [3]) | binding amount (mouse FcγRIV [4]) | binding amount (mouse FcγRI [5]) | Kd [6] | Kd [7] | Kd [8] | binding amount (mouse FcγRIIb [9]) | binding amount (mouse FcγRIII [10]) | binding amount (mouse FcγRIV [11]) | binding amount (mouse FcγRI [12]) | Kd [13] | Kd [14]
1 | VH3/L(WT)-IgG1-F890 (antibody) chain 1: QVQLQESGPGLVKPSETLSLTCAVSGHSISHDHAWSWVRQPPGEGLEWIGFISYSGITNYNPSLQGRVTISRDNSKNTLYLQMNSLRAEDTAVYYCARSLARTTAMDYWGEGTLVTVSSASTKGPSVFPLAPSSKSTSGGTAALGCLVKDYFPEPVTVSWNSGALTSGVHTFPAVLQSSGLYSLSSVVTVPSSSLGTQTYICNVNHKPSNTKVDKKVEPKSCDKTHTCPPCPAPELLGGPSVFLFPPKPKDTLYISRTPEVTCVVVDVSHEDPEVKFNWYVDGVEVHNAKTKPREEQYNSTYRVVSVLTVLHQDWLNGKEYKCKVSNKALPAPIEKTISKAKGQPREPQVYTLPPSRDELTKNQVSLTCLVKGFYPSDIAVEWESNGQPENNYKTTPPVLDSDGSFFLYSKLTVDKSRWQQGNVFSCSVMHEALHYHVTQKSLSLSP chain 2: not shown | 110 nM | 69.3 RU | 284 RU | 230 RU | 268 RU | 107 nM | 110 nM |  |  |  |  |  |  | 
2 | VH3/L(WT)-IgG1-F947 (antibody) chain 1: QVQLQESGPGLVKPSETLSLTCAVSGHSISHDHAWSWVRQPPGEGLEWIGFISYSGITNYNPSLQGRVTISRDNSKNTLYLQMNSLRAEDTAVYYCARSLARTTAMDYWGEGTLVTVSSASTKGPSVFPLAPSSKSTSGGTAALGCLVKDYFPEPVTVSWNSGALTSGVHTFPAVLQSSGLYSLSSVVTVPSSSLGTQTYICNVNHKPSNTKVDKKVEPKSCDKTHTCPPCPAPELLGGPSVFLFPPKPKDVLYISRTPEVTCVVVDVSHEDPEVKFNWYVDGVEVHNAKTKPREEQYNSTYRVVSVLQPLHADWLNGKEYKCKVSNKALPAPIEKTISKAKGQPREPQVYTLPPSRDELTKNQVSLTCLVKGFYPSDIAVEWESNGQPENNYKTTPPVLDSDGSFFLYSKLTVDKSRWQQGNVFSCSVMHEALHYHVTQKSLSLSP chain 2: not shown | 11 nM | 117 RU | 382 RU | 242 RU | 299 RU | 11 nM |  | 11 nM | 129 | 664 | 279 | 329 | 11 nM | 
3 | VH3/L(WT)-IgG1-F1009 (antibody) chain 1: QVQLQESGPGLVKPSETLSLTCAVSGHSISHDHAWSWVRQPPGEGLEWIGFISYSGITNYNPSLQGRVTISRDNSKNTLYLQMNSLRAEDTAVYYCARSLARTTAMDYWGEGTLVTVSSASTKGPSVFPLAPSSKSTSGGTAALGCLVKDYFPEPVTVSWNSGALTSGVHTFPAVLQSSGLYSLSSVVTVPSSSLGTQTYICNVNHKPSNTKVDKKVEPKSCDKTHTCPPCPAPELRGGPKVFLFPPKPKDVLYISRTPEVTCVVVDVSHEDPEVKFNWYVDGVEVHNAKTKPREEQYNSTYRVVSVLQPLHADWLNGKEYKCKVSNKALPAPIEKTISKAKGQPREPQVYTLPPSRDELTKNQVSLTCLVKGFYPSDIAVEWESNGQPENNYKTTPPVLDSDGSFFLYSKLTVDKSRWQQGNVFSCSVMHEALHYHVTQKSLSLSP chain 2: not shown | 12 nM | -1.5 RU | -12.9 RU | 7.2 RU | 0.6 RU | 12 nM |  |  |  |  |  |  |  | 12 nM
